The values below come from CN111840217A (BEIJING EASTERN BIOTECH CO LTD, dated 2020).

Substitutions are numbered along the chain they refer to.

The target of this assay is T1, 人皮肤成纤维细胞(HDF)上的IL-17RA (UniProt Q96F46 33-866, limits assumed).
T1 sequence (looked up): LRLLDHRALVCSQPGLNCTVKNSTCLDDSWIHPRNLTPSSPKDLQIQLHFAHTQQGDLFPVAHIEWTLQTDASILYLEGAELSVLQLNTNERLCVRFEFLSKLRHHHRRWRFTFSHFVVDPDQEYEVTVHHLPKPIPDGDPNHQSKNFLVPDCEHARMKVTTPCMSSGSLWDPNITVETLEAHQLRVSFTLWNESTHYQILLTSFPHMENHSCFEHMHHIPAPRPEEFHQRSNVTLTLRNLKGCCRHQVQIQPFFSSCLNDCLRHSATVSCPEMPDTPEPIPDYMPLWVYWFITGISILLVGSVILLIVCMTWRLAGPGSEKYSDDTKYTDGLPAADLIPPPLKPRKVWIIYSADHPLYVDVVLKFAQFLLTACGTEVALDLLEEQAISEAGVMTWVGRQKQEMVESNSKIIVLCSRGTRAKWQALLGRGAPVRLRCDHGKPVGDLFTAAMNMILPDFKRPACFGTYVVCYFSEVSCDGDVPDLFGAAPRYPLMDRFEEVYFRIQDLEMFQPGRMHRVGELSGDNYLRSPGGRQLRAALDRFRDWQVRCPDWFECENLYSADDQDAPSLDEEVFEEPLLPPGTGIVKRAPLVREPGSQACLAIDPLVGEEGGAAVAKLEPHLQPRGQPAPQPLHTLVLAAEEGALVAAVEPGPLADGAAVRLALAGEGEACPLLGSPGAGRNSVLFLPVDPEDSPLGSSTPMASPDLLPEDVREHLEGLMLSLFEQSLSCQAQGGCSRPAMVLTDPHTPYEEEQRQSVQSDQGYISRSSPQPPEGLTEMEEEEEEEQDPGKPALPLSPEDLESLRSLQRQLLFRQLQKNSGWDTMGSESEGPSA
In words: cell-based or functional assay.

B1: 上市产品Brodalumab的全抗体 (antibody, V domains shown)
VH: QVQLVQSGAEVKKPGASVKVSCKASGYTFTRYGISWVRQAPGQGLEWMGWISTYSGNTNYAQKLQGRVTMTTDTSTSTAYMELRSLRSDDTAVYYCARRQLYFDYWGQGTLVTVSS
VL: EIVMTQSPATLSVSPGERATLSCRASQSVSSNLAWFQQKPGQAPRPLIYDASTRATGVPARFSGSGSGTDFTLTISSLQSEDFAVYYCQQYDNWPLTFGGGTKVEIK
With B1, the “抑制HDF细胞产生IL-6 IC50(ng/ml)” value was 117 ng/mL.

B2: mAb-4全抗体 (antibody, human IgG1, kappa, V domains shown)
VH: B1 VH with T28A, F29Y, T30S, R31N, Q62K, L64F, Q65I, Q100V, Y102R, F103L
VL: DIQMTQSPSSLSASVGDRVTITCRASQDIDSSLNWYQQKPGKAPKLLIYAASNRESGVPSRFSGSGSGTDFTLTISSLQPEDFATYYCQQWANMPGTFGQGTKVEIKR
With B2, the “抑制HDF细胞产生IL-6 IC50(ng/ml)” value is 35.8 ng/mL.

B3: mAb-9全抗体 (antibody, human IgG1, kappa, V domains shown)
VH: B1 VH with F29W, R31S, Q62K, L64F, Q65L, Q100V, Y102R, F103L
VL: DIQMTQSPSSLSASVGDRVTITCRASQSVHTGLNWYQQKPGKAPKLLIYGASNLQSGVPSRFSGSGSGTDFTLTISSLQPEDFATYYCQQFEHNPLTFGQGIKVEIKR
With B3, the “抑制HDF细胞产生IL-6 IC50(ng/ml)” value is 24.8 ng/mL.

B4: mAb-6全抗体 (antibody, human IgG1, kappa, V domains shown)
VH: B1 VH with T28S, Q62K, K63Q, L64F, Q65K, Q100V, Y102R, F103L
VL: EIVMTQSPATLSVSPGERATLSCRASQDISISLGWFQQKPGQAPRPLIYGWNTRATGVPARFSGSGSGTDFTLTISSLQSEDFAVYYCQQYSDPFLTFGGGTKVEIKR
As to B4, the “抑制HDF细胞产生IL-6 IC50(ng/ml)” value was found to be 33.4 ng/mL.

B5: mAb-8全抗体 (antibody, human IgG1, kappa, V domains shown)
VH: B1 VH with T28G, T30A, R31S, Y32R, Q62K, L64F, Q65E, Q100V, Y102R, F103L
VL: B3 VL
On to B5, for which the “抑制HDF细胞产生IL-6 IC50(ng/ml)” value amounted to 13.5 ng/mL.

B6: mAb-7全抗体 (antibody, human IgG1, kappa, V domains shown)
VH: B1 VH with R31S, Q62K, K63N, Q100V, Y102R, F103L
VL: B4 VL
On to B6, for which the “抑制HDF细胞产生IL-6 IC50(ng/ml)” value was determined as 29.7 ng/mL.

B7: mAb-1全抗体 (antibody, human IgG1, kappa, V domains shown)
VH: B1 VH with T28S, F29Y, T30S, R31N, A61S, Q62K, Q65K, Q100V, Y102R, F103L
VL: B2 VL
On to B7, for which the “抑制HDF细胞产生IL-6 IC50(ng/ml)” value was determined as 28.4 ng/mL.

B8: mAb-11全抗体 (antibody, human IgG1, kappa, V domains shown)
VH: B1 VH with T28A, F29W, Q62K, L64F, Q65K, Q100V, Y102R, F103L
VL: B3 VL
As for B8, the “抑制HDF细胞产生IL-6 IC50(ng/ml)” value came out at 60.8 ng/mL.

B9: mAb-2全抗体 (antibody, human IgG1, kappa, V domains shown)
VH: B1 VH with T28A, F29W, Q62K, L64F, Q65K, Q100V, Y102R, F103L
VL: B2 VL
Take B9: the “抑制HDF细胞产生IL-6 IC50(ng/ml)” value worked out at 22.7 ng/mL.

B10: mAb-5全抗体 (antibody, human IgG1, kappa, V domains shown)
VH: B1 VH with Y27F, T28A, Q62D, K63Q, L64F, Q65I, Q100V, Y102R, F103L
VL: B2 VL
For B10, the “抑制HDF细胞产生IL-6 IC50(ng/ml)” value was determined as 22.9 ng/mL.

B11: mAb-10全抗体 (antibody, human IgG1, kappa, V domains shown)
VH: B1 VH with T28S, T30S, R31S, Q62K, L64F, Q65K, Q100V, Y102R, F103L
VL: B3 VL
On to B11, for which the “抑制HDF细胞产生IL-6 IC50(ng/ml)” value was found to be 36.4 ng/mL.

B12: mAb-3全抗体 (antibody, human IgG1, kappa, V domains shown)
VH: B1 VH with T28A, T30S, Y32F, Q62K, K63H, Q65L, Q100F, Y102K
VL: B2 VL
For B12, the “抑制HDF细胞产生IL-6 IC50(ng/ml)” value came to 33.4 ng/mL.
